Drawing on article PMC7584627, this text covers percent of nanoparticle subunit conjugated for one substance.

The target in the experiment is LuS-N71-SpyTag (Aquifex aeolicus). The experiment in a line: SDS-PAGE of the covalent conjugate, band intensities.

Take SARS-CoV-2 spike-SpyCatcher: the percent of nanoparticle subunit conjugated was 91%.
